Assay results: publication PMC7263513 (bioRxiv, 2020)

B1: C155 (antibody, V domains shown)
VH: EVQLVESGGGLIQPGGSLRLSCAASGFIVSSNYMSWVRQAPGKGLEWVSVIYSGGSTFYADSVKGRFTISRDNSKNTLYLQMNSLRAEDTAVYYCARDFGEFYFDYWGQGTLVTVSS
VL: EIVMTQSPATLSVSPGERATLSCRASQSVSSNLAWYQQKPGQAPRLLIYGASTRATAIPARFSGSGSGTEFTLTISSLQSEDFAVYYCQQYNNWPRTFGQGTKVEIK
B2: C210 (antibody, V domains shown)
VH: EVQLVESGGGLIQPGGSLRLSCAASGFTVSSNYMSWVRQAPGKGLEWVSVIYSGGSTFYADSVKGRFTFSRDNSKNTLYLQMNSLRAEDTAVYYCARDLMAYGMDVWGQGTTVTVSS
VL: DIQLTQSPSFLSASVGDRVTITCRASQGISSYLAWYQQKPGKAPKLLIYAASTLQSGVPSRFSGSGSGTEFTLTISSLQPEDFATYYCQQLNSYPQGTFGGGTKVEIK
B3: C165 (antibody, V domains shown)
VH: QVQLVQSGAEVKKPGSSVKVSCKASGGTFSSYAINWVRQAPGQGLEWMGRIIPIVGIANYAQKFQGRVTITADKSSSTAYMELSSLRSEDTAVYYCARDLLDPQLDDAFDIWGQGTMVTVSS
VL: not shown
B4: C151 (antibody, V domains shown)
VH: EVQLVESGGGLVKPGGSLRLSCAASGFTFSSYNMNWVRQAPGKGLEWVSCISSSSSYIYYADSVKGRFTISRDNAKNSLYLQMNSLRAEDTAVYYCARERGYDGGKTPPFLGGQGTLVTVSS
VL: NFMLTQPHSVSESPGKTVTISCTGSSGSIASNYVQWYQQRPGSAPTTVIYEDNQRPSGVPDRFSGSIDSSSNSASLTISGLKTEDEADYYCQSYDSSNYWVFGGGTKLTVL
B5: C154 (antibody, V domains shown)
VH: QVQLVESGGGVVQPGRSLRLSCAASGFTFSRYGMHWVRQAPGKGLEWVAVMSYDGSSKYYADSVKGRFTISRDNSKNTLCLQMNSLRAEDTAVYYCAKQAGPYCSGGSCYSAPFDYWGQGTLVTVSS
VL: DIQMTQSPSSLSASVGDRVTITCQASQGISNYLNWYQQKPGKAPKLLIYDASNLETGVPSRFSGSGSGTDFTFTISSLQPEDIATYYCQQYDNLPITFGQGTRLEIK
B6: C202 (antibody, V domains shown)
VH: EVQLVESGGGLVQPGGSLRLSCAASGFTVSSNYMSWVRQAPGKGLEWVSLIYSGGSTYYADSVKGRFTISRDNSKNTLYLQMNSLRAEDTAVYYCARDTLGRGGDYWGQGTLVTVSS
VL: DIQLTQSPSSLSASVGDRVTITCQASQDISNYLNWYQQKPGKAPKLLIYDASNLETGVPSRFSGSGSGTDFTFTISSLQPEDIATYYCQQYDNLPRSFGQGTKLEIK
B7: C156 (antibody, V domains shown)
VH: QVQLVESGGGVVQPGRSLRLSCAASGFTFSNYGMHWVRQAPGKGLEWVAVISYDGNNKYYADSVKGRFTISRDNSKNTLYLQMNSLRAEDTAVYYCAKDPFPLAVAGTGYFDYWGQGTLVTVSS
VL: SYELTQPPSVSVAPGQTARISCGGNNIGSKNVHWYQQKPGQAPVLVVYDDSDRPSGIPERFSGSNSGNTATLTISRVEAGDEADYYCQVWDSSSDPWVFGGGTKLTVL
B8: C204 (antibody, V domains shown)
VH: EVQLLESGGGLEQPGGSLRLSCAASGFTFSTYAMSWVRQAPGKGLEWVSAISGSGAGTFYADSVKGRFTISRDNSKNTLYLQMNSLRAEDTAVYYCARESDCGSTSCYQVGWFDPWGQGTLVTVSS
VL: not shown
B9: C201 (antibody, V domains shown)
VH: EVQLVESGGGLVQPGRSLRLSCAASGFTFDDYAMHWVRQAPGKGLEWVSGISWNSGSIGYADSVKGRFTISRDNAKNSLYLQMNSLRAEDTALYYCVKGVEYSSSSNFDYWGQGTLVTVSS
VL: IRMTQSPSSVSASVGDRVTITCRASQGISSWLAWYQQKPGKAPKLLIYVESSLQSGVPSRFSGSGSGTDFTLTISSLQPEDFATYYCQQANSFPLTFGGGTKVEIK
B10: C153 (antibody, V domains shown)
VH: EVQLVESGGGLIQPGGSLRLSCAASGFTVSSNYMSWVRQAPGKGLEWVSVIYSGYSTYYVDSVKGRFTISRDNSKNTLYLQMNSLRAEDTAVYYCARVGGAHSGYDGSFDYWGQGTLVTVSS
VL: QSALTQPASVSGSPGQSITISCTGTSSDVGSYNLVSWYQQHPGKAPKLMIYEGSKRPSGVSNRFSGSKSGNTASLTISGLQAEDEADYYCCSYAGSSTWVFGGGTKLTVL
B11: C143 (antibody, V domains shown)
VH: EVQLVESGGGLVQPGGSLRLSCAASGFSVSTKYMTWVRQAPGKGLEWVSVLYSGGSDYYADSVKGRFTISRDNSKNALYLQMNSLRVEDTGVYYCARDSSEVRDHPGHPGRSVGAFDIWGQGTMVTVSS
VL: QSALTQPASVSGSPGQSITISCTGTSNDVGSYTLVSWYQQYPGKAPKLLIFEGTKRSSGISNRFSGSKSGNTASLTISGLQGEDEADYYCCSYAGASTFVFGGGTKLTVL
B12: C164 (antibody, V domains shown)
VH: EVQLVESGGGLVQPGGSLRLSCAASGFSVSTKYMTWVRQAPGKGLEWVSVLYSGGSDYYADSVKGRFTISRDNSKNALYLQMNSLRVEDTGVYYCARDSSEVRDHPGHPGRSVGAFDIWGQGTMVTVSS
VL: QSALTQPASVSGSPGQSITISCTGTSNDVGSYTLVSWYQQYPGKAPKLLIFEVTKRSSGISNRFSGSKSGNTASLTISGLQGEDEADYYCCSYAGASTFVFGGGTKLTVL
B13: C145 (antibody, V domains shown)
VH: EVQLVESGGGLIQPGGSLRLSCAASGFSVSSNYMSWVRQAPGKGLEWVSVIYSGGSTYYADSVKGRFTISRDNSKNTLYLQMNSLRAEDTAVYYCAREGEVEGYYDFWSGYSRDRYYFDYWGQGTLVTVSS
VL: QSALTQPASVSGSPGQSITISCTGTSSDVGGYNYVSWYQQHPGKAPKLMIYDVSNRPSGVSNRFSGSKSGNTASLTISGLQAEDEADYYCSSYTSSTTRVFGTGTRVTVL
B14: C150 (antibody, V domains shown)
VH: EVQLVESGGGLVQPGGSLRLSCVASGFTFSSYWMHWVRQVPGKGPVWVSHINSEGSSTNYADSVRGRFTISRDNAKDTLYLQMNNLRAEDTAVYYCARPTAVAAAGNYFYYYGMDVWGQGTTVTVSS
VL: QSALTQPASVSGSPGQSITISCTGTSSDVGYYNFVSWYQQHPGKAPKLMIYEVSNRPSGVSNRFSGSKSGNTASLIISGLQAEDEADYYCSSYRSSSTLVFGGGTKLTVL
B15: C148 (antibody, V domains shown)
VH: EVQLVESGGGLVQPGGSQRLSCAASGFTVSSNYMSWIRQAPGKGLEWVSVIYSGGSAYYVDSVKGRFTISRDNSKNTLYLQMNSLRPEDTAVYYCARIANYMDVWGKGTTVTVSS
VL: EIVMTQSPATLSVSPGERATLSCRASQSVSSHLAWYQQKPGQAPRLLIYGASTRATGIPTRFSGSGSGTEFTLTISSLQSEDFAVYYCQQYNNWPPLTFGGGTKVEIK
B16: C207 (antibody, V domains shown)
VH: not shown
VL: EIVLTQSPATLSLSPGERATLSCRASQSVSSYLAWYQQKPGQAPRLLIYDASNRATGIPARFSGSGSGTDFTLTISSLEPEDFAVYYCQQRSNWPRGFGQGTKVEIK

Molecular target: SARS-CoV-2 receptor binding domain (RBD) (Severe acute respiratory syndrome …, UniProt P0DTC2)
Test: cell-based or functional assay

| Binder | IC50 of neutralisation of SARS-CoV-2 pseudovirus (293T_(ACE2) cells) |
| --- | --- |
| B1 | 11 ng/mL |
| B2 | 50.7 ng/mL |
| B3 | 40.8 ng/mL |
| B4 | 31.8 ng/mL |
| B5 | 436 ng/mL |
| B6 | > 1000 ng/mL |
| B7 | > 1000 ng/mL |
| B8 | > 1000 ng/mL |
| B9 | > 1000 ng/mL |
| B10 | 70.7 ng/mL |
| B11 | > 1000 ng/mL |
| B12 | 239 ng/mL |
| B13 | 3.04 ng/mL |
| B14 | > 1000 ng/mL |
| B15 | > 1000 ng/mL |
| B16 | 159 ng/mL |
